Source: article PMC5438564

Tests used:
Fyn [1] = molecular target: Fyn (UniProt P39688); assay: proximity ligation assay (PLA), Fyn3 + Tau5 antibodies (total tau); settings: transfected Mapt-/- neurons; n = 16-31 neurons per construct from two experiments; parent: est. 1.0; read off a plot
Fyn [2] = molecular target: Fyn (UniProt P39688); assay: proximity ligation assay (PLA), Fyn3 + Tau1 antibodies (tau unphosphorylated at S198/S199/S202); settings: transfected Mapt-/- neurons; n = 16-31 neurons per construct from two experiments; parent: est. 1.0; read off a plot

Row | ratio to parent (Fyn [1]) | ratio to parent (Fyn [2]) | Substance
1 | 0.41 | 1.1 | wildtype 0N4R mouse tau (mTau^WT) P216A; P219A
2 | 0.2 | 0.2 | wildtype 0N4R mouse tau (mTau^WT) P233A; P236A
3 | 0.3 | 1.7 | wildtype 0N4R mouse tau (mTau^WT) Y18F
